# Test results taken from patent US20250145706A1.
# B1: mAb01-01 (antibody, V domains shown)
# VH: QVQLQQSGPGLVQPSQSLSITCTVSGFSLTSYGIHWVRQSPGKGLEWLGVIWRGGGTDSNAAFMSRLSITKDNSKSQVFFKMNSLQADDTAIYYCARSRYDEEESMNYWGQGTSVTVSS
# VL: QIVLTQSPASLSASVGETVTITCRASGNIHSYLAWYQQKQGKSPQLLVYNAKTLADGVPSRFSGSGSGTQYSLKINSLQPEDFGSYYCQHFWNTPPTFGAGTKLELKR
# Experiments:
# [1] = biological target: IGHV4-39/IGLV3-21^R110 BCR on CLL B cells (PBMCs) of a patient (human); assay: flow cytometry; PBMCs of a CLL patient with IGHV4-39/IGLV3-21^R110 BCR, co-stained with anti-CD19 VioBright515
# [2] = biological target: IGHV3-21/IGLV3-21^G110 BCR, membrane-bound on murine TKO cells (human); assay: flow cytometry; cell mix B (1:1 IGHV3-21/IGLV3-21^G110 BCR TKO cells and BCR-negative TKO cells), co-stained with anti-IgM-PE
# [3] = biological target: IGHV3-21/IGLV3-21^R110 BCR, membrane-bound on murine TKO cells (human); assay: flow cytometry; cell mix A (1:1 IGHV3-21/IGLV3-21^R110 BCR TKO cells and BCR-negative TKO cells), co-stained with anti-IgM-PE
# [4] = biological target: BCRs of a CLL patient, which does not harbor IGLV3-21^R110 (human); assay: flow cytometry; PBMCs of a patient with non-IGLV3-21^R110 CLL, co-stained with anti-CD19 (axis label anti-CD19 FITC)
binder,measurement,setting,value
B1,"% of gated cells in Q5, anti-CD19 positive and mAb01-01-APC negative",[1],0.29%
same,"% of gated cells in Q6, anti-CD19 positive and mAb01-01-APC positive",[1],98.7%
same,"% of gated cells (Gate P1) in Q1, anti-IgM-PE positive and mAb01-01-APC negative",[2],42.2%
same,"% of gated cells (Gate P1) in Q2, anti-IgM-PE positive and mAb01-01-APC positive",[2],1.11%
same,"% of gated cells (Gate P1) in Q1, anti-IgM-PE positive and mAb01-01-APC negative",[3],2.78%
same,"% of gated cells (Gate P1) in Q2, anti-IgM-PE positive and mAb01-01-APC positive",[3],45.5%
same,"% of gated cells in Q5, anti-CD19 positive and mAb01-01-APC negative",[4],98.8%
same,"% of gated cells in Q6, anti-CD19 positive and mAb01-01-APC positive",[4],0.28%
